Assay [1] deals with talin1 F0 domain (murine) (UniProt P26039).
A further assay addresses GST-talin head (mouse, UniProt P26039 1-433). Description: pull-down.
The target in a further assay is GST-talin head ΔF1 loop (mouse, UniProt P26039 1-433, lacking residues 133–165). Description: pull-down.

Among the data in publication PMC2845276 (The EMBO Journal, 2010) are Kd values, retold here.

Chain of GMP.PNP-Rap1 (P62834 whole entry): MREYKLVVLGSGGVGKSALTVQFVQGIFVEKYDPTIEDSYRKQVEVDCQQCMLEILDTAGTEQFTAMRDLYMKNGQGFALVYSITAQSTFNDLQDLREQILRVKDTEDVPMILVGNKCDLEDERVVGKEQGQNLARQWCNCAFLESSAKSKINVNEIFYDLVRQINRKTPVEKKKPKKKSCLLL

In general, Kd refers to the equilibrium constant for the complex coming apart. Higher therefore signals weaker binding. The molecule “GMP.PNP-Rap1 (from UniProt P62834 1-184) (natural protein)” had a Kd in assay [1] of 140000 nM. With KLLMIIHDRREFAKFEKEKMNAKWDTGENPIYKSAVTTVVNPKYEGK (domain or fragment, UniProt P05556-1 752-798, looked up) [β1A-integrin cytoplasmic tail (recombinant model protein)], the Kd was 124 ± 19 nM in the assay with GST-talin head and 99 ± 20 nM in the assay with GST-talin head ΔF1 loop.
